% Inhibition of Specific Binding data for 2 molecules are collected here from patent US20220315554A1, “COMPOUNDS COMPRISING A […] LIGAND AND USE THEREOF” (priority 2019, published 2022).

Details in all cases: remark: other sources report otherwise
In assay [1] the target is 5-HT1B (h) (human (printed (h))), P28222. Put plainly: radioligand displacement, 10 uM compound.
Assay [2] deals with 5-HT2A (h) (human (printed (h))), P28223. Description: radioligand displacement, 10 uM compound.
Assay [3] concerns the target T1, D2S (h) (human (printed (h))), P14416.
T1 chain: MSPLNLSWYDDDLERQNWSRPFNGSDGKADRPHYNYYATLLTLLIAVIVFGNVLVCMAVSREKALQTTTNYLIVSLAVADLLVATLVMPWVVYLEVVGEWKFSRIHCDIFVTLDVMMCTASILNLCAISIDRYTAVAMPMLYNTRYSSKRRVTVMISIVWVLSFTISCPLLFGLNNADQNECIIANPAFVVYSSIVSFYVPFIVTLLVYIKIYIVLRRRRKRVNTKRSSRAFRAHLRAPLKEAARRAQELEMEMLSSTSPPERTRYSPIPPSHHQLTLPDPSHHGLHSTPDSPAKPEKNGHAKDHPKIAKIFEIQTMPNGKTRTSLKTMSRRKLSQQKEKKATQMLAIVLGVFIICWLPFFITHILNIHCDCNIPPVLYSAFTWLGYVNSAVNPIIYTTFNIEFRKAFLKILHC
Description: radioligand displacement, 10 uM compound.

In assay [4] the target is T2, M2 (h) (human (printed (h))), P08172.
T2 chain: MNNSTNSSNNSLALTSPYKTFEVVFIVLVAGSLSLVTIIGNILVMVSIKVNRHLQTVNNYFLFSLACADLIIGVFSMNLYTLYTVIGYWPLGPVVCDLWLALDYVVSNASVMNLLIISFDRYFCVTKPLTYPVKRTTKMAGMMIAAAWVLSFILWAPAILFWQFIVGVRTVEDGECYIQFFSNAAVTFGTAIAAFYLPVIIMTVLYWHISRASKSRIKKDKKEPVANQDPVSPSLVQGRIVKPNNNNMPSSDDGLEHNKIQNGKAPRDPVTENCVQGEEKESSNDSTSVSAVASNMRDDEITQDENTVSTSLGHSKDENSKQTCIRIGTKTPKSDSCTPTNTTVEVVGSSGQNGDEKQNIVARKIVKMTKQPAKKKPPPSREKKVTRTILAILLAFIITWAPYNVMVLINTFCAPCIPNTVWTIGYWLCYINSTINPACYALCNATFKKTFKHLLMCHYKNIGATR
Put plainly: radioligand displacement, 10 uM compound.

Assay [5] concerns the target V1a (h) (human (printed (h))), P37288. Description: radioligand displacement, 10 uM compound.
Assay [6] has as its target T3, Potassium Channel hERG (human) (human), Q12809.
T3 chain: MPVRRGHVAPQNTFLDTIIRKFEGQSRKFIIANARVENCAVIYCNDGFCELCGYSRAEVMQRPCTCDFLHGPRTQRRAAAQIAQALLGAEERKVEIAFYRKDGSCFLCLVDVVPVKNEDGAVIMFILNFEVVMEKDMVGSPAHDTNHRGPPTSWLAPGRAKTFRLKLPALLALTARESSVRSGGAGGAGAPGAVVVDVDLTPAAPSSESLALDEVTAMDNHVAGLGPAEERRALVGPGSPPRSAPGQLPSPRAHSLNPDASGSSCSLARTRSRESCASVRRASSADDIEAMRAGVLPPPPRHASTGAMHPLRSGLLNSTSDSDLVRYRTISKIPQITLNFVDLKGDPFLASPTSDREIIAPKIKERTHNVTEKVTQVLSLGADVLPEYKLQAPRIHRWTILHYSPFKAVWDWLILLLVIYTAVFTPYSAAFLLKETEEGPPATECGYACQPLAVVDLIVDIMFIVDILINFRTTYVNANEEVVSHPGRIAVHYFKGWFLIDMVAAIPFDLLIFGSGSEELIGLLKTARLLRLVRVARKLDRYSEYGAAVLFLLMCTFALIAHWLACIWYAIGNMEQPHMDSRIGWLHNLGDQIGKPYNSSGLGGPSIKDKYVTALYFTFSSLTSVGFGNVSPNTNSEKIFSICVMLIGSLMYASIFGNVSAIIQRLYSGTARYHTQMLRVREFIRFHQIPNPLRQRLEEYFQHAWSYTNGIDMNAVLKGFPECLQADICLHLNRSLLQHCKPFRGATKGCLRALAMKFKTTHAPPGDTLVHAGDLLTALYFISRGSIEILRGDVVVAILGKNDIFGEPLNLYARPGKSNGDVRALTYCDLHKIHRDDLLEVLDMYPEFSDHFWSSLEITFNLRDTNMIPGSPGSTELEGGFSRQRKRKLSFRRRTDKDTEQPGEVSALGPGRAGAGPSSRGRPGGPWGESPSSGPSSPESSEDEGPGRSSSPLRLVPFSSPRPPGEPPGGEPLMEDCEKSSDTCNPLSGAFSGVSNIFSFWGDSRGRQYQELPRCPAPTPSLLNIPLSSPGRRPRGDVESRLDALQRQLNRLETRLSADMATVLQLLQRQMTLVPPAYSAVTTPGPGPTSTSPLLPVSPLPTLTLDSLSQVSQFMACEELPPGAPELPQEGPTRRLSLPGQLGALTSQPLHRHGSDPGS
Description: [3H] Dofetilide displacement, 10 uM compound.

Bridge positions count the residues as written; N and C are the ends. * marks the point of attachment. tMeBn(DOTA-AET) = Cys-Cys bridge (thioethers) carrying DOTA-AET; tMeBn(DOTA-PP) = Cys-Cys bridge (thioethers) carrying DOTA-PP; Hexanoyl = CCCCCC(=O)*

Chain of 5-HT2A (h) (human (printed (h))), P28223 (P28223 whole entry): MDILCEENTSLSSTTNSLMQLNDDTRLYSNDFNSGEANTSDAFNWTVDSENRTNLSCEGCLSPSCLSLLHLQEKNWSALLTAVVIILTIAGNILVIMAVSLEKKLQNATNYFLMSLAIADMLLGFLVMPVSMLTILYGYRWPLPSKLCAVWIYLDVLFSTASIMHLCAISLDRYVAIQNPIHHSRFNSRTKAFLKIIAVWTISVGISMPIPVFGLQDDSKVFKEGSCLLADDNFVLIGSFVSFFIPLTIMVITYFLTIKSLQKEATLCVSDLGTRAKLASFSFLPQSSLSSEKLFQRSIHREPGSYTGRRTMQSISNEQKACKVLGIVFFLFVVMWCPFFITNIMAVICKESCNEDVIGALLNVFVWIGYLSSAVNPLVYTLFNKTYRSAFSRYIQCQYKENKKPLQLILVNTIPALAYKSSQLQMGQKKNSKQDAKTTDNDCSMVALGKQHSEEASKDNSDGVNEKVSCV
Chain of 5-HT1B (h) (human (printed (h))), P28222 (P28222 whole entry): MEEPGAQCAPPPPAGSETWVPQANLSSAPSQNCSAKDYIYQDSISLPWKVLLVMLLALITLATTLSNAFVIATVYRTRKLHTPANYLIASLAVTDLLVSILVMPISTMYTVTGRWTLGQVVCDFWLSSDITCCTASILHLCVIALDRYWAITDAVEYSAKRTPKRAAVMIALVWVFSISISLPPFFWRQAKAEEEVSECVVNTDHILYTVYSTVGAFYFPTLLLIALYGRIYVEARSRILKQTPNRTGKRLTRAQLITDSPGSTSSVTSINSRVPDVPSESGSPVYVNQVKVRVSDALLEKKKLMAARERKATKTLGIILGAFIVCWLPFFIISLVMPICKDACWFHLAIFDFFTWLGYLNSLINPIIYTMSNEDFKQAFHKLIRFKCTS

As for Hexanoyl-CPPTQFCD-NH2 (linker 1-7 via tMeBn(DOTA-PP)) [Hex-[Cys(tMeBn(DOTA-PP))-Pro-Pro-Thr-Gln-Phe-Cys]-Asp-NH2 (3BP-3407)], the % Inhibition of Specific Binding in assay [1] is -11%; in assay [2], -2%; in assay [3], 15%; in assay [4] it was -4%; in assay [5], 16%; in assay [6], 2%.
With Hexanoyl-CPPTQFC-OH (linker 1-7 via tMeBn(DOTA-AET)) [Hex-[Cys(tMeBn(DOTA-AET))-Pro-Pro-Thr-Gln-Phe-Cys]-OH (3BP-3554)], the % Inhibition of Specific Binding in assay [1] was 8%; in assay [2] it was 4%; in assay [3], -7%; in assay [4], 7%; in assay [5], 1%; in assay [6] it was 6%.
